From PMC4822050, “Hemi-methylated DNA opens a closed conformation of UHRF1 to facilitate its histone recognition” (Nature Communications, 2016)

How the values were obtained:
Assay in all cases: ITC; 0.05 mM protein in the cell, 0.5 mM protein or peptide in the syringe, iTC200, 18 °C, 10 mM HEPES pH 8.0, 100 mM NaCl
Details in all cases: both partners purified
[1] = molecular target: T1, full-length UHRF1 (residues 1–793) (human, UniProt Q96T88 1-793)
T1 construct: human UHRF1, residues 1–793; monomer by gel filtration; also called wild-type UHRF1; ICBP90
T1 sequence (looked up): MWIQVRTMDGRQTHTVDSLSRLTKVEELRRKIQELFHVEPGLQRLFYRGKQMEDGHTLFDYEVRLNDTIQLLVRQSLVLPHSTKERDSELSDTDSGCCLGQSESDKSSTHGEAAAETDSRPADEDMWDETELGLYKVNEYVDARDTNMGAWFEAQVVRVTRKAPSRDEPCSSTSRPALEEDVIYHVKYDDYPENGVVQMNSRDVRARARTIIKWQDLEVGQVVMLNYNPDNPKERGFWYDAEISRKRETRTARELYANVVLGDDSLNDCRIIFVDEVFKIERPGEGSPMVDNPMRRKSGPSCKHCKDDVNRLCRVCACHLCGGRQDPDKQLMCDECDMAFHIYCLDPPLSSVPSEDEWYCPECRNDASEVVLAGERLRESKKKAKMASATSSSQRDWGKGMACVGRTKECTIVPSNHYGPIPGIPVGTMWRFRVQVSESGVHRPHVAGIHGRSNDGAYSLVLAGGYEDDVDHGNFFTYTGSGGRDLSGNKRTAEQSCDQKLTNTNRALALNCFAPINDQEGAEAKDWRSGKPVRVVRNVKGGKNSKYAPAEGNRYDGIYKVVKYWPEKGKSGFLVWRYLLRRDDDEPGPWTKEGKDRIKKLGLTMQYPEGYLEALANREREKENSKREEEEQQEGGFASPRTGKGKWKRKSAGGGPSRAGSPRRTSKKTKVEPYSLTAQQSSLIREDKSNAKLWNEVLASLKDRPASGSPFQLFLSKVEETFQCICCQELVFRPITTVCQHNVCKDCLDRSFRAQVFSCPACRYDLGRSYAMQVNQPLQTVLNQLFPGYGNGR

[2] = molecular target: T2, TTD–PHD of UHRF1 (residues 134–366) (human, UniProt Q96T88 134-366)
T2 sequence (looked up): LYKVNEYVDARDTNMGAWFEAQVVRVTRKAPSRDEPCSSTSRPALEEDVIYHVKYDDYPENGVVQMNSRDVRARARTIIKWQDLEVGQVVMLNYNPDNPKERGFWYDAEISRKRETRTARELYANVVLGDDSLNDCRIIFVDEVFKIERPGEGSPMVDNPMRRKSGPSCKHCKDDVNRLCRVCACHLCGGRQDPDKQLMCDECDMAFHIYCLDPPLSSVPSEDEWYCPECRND

UHRF1^Δ627–674 = molecular target: T3, UHRF1^Δ627–674 (human, UniProt Q96T88 1-793, Δ627–674)
T3 construct: also called spacer deletion mutant
T3 sequence (looked up): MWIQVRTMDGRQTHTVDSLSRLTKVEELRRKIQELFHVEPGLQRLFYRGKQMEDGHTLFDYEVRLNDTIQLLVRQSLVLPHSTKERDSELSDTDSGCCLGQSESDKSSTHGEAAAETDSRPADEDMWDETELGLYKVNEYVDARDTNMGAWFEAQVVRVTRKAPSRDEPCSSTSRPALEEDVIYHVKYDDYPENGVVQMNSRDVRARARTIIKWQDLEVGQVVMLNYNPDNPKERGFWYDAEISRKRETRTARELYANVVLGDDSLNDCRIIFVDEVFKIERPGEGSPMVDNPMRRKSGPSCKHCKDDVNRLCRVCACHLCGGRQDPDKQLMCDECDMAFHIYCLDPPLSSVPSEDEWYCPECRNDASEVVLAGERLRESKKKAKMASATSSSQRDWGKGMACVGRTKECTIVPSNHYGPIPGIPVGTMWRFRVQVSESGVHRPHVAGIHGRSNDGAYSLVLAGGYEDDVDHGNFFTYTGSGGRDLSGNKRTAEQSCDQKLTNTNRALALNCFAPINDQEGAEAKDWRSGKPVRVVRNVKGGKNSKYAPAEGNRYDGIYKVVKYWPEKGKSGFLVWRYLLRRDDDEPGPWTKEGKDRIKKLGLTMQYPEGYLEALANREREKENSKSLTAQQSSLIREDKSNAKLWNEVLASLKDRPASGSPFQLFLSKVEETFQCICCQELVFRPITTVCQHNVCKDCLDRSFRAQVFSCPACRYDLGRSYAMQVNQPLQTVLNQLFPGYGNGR

[3] = molecular target: T4, R295D/R296D mutant of full-length UHRF1 (human, UniProt Q96T88 1-793, R295D | R296D)
T4 construct: human UHRF1 (1–793)
T4 sequence (looked up): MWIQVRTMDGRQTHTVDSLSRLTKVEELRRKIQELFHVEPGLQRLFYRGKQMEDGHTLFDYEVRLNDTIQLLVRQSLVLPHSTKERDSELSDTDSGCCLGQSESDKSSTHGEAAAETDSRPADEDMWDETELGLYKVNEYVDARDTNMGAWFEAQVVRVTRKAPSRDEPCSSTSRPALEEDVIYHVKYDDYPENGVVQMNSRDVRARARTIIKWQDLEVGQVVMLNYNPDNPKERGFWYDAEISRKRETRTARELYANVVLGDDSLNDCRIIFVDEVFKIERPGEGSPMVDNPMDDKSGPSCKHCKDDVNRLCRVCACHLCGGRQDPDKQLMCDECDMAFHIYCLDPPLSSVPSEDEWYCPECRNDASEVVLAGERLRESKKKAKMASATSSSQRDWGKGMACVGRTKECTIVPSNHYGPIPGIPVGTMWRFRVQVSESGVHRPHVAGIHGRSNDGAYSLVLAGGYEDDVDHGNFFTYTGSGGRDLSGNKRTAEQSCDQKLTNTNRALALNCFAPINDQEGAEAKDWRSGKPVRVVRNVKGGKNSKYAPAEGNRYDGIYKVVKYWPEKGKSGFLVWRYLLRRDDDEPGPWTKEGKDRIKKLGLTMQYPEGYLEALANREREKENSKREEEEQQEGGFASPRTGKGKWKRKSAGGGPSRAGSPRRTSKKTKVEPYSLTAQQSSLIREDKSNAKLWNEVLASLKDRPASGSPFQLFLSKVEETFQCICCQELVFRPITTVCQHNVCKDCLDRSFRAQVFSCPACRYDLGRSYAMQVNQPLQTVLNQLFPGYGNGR

Question: Which Kd [1] does the source give for ARTKQTARKSTGGKAPR (peptide, UniProt P68431 2-18, looked up, trimethyl-lysine at K9, histone H3, residues 1–17) [H3K9me3 peptide (1–17)] here?
Answer: The Kd was 4.61 µM.

Question: And the Kd [2]?
Answer: Its Kd is 0.15 µM.

Question: And the “fold increase in binding affinity against full-length UHRF1” value (UHRF1^Δ627–674)?
Answer: The value was 4 fold.

Question: And the “fold lower binding affinity than wild type” value [3]?
Answer: Its value is 8 fold.
